experiment: yeast display, Sf9 membrane polyspecificity reagent, FACS + sequencing; frameworks hold sequencing errors
Method in brief: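 Nanobodies from a synthetic yeast display library (Saccharomyces cerevisiae BJ5465), induced 36–48 hours with galactose, were stained 1 hour at 4 °C with 10% biotinylated, detergent-solubilized Sf9 membrane reagent, enriched on streptavidin microbeads, then FACS-sorted. Anti-HA (expression) and streptavidin (reagent binding) fluorescence set low and high (top ~1%) gates. Polyreactivity labels come from the gate of origin. Genes were colony-PCR amplified, MiSeq 2 × 250 sequenced and filtered by CDR length.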

Sequence | polyreactivity (PSR sort gate)
QVQLVESGRGLVQAGGSLRLSCAASGRTIKYYAMGWYRQAPGKDRELVAVISWSGGSTYYADSVKGRFTISRDNAKNTVYLQMNSLKPEDTAVYYCNAYVYAYYAGYNYWGQGTQLTVSS | high polyreactivity
QVQLVESGGGLVQAGGSLRLSCAASGSTFRFYAMGWYRQAPGKERELVAAISSGGSSTYYADSVKGRFTISRDNAKNTVYLQMNSLKPEDTAVYYCAADSYVVRWRERDYWGQGTQVTVSS | low polyreactivity
QVQLVESGGGLVQAGGSLRLSCAASGLTFYSNAMGWYIQAPGKERELVASISKRGATTYYADSVKGRFTISRDIAKYTVYLQMNSQKAEDTAVYYCAAEYLRNQELGYQGVAILYVFWGQGTQVTVSS | low polyreactivity
QVQLVESGGGLVQAGGSLRLSCAASGFTFNYYAMGWYRQAPGKEREFVAAISRSAGSTYYADSVKGRFTISRDNAKNTVYLQMNSLKPEDTAVYYCAADPRSKGFYYGYDYWGQGTQVTVSS | high polyreactivity
QVQLVESGGGLVQAGGSLRLSCGASGIIFLVNAMGWYRQAPGRERELVATITSGGSTYADSVKGRFTISRDNAKNTVYLQMNSLKPEDTAVYYCAAVRRRRNSYGYWGQGTQVTVSS | high polyreactivity
QVQLVESGGGLVQAGGSLRLSSAASGRIFRHYAMGWYRQAPGKERELVASITRGDNTYYADSVKGRFTISRDNAKNTVYLQMNSLKPEDSAVYYCAAVFYSYSSASEYYYWGQGTQVTVSS | high polyreactivity
QVQLVESGGRLVQAGGSLRLSCAASGIFYTYDMGRYRQAPGKERELVATINSGGSTNYADSVKGRFTISRDNAKNTVYLQMNSLKPEDTAVYYCAAAEDVYSERPRYDYWGQGTQVTVSS | low polyreactivity
QVQLVESGGRLVQAGGSLRLSCAASGRTFIKYAMGWYRQAPGKERELVAAISRNGGSTNYADSVKGRFTISRDNAKNTVYLQMNSLKPEDTAVYYCAAVGTVSRTVGYNYWGQGTQVTVSS | high polyreactivity
QVQLVESGGGLVQAGGSLRLSCAASGSIFKYYVMGWYRQAPGKEREFVAVISWSGGTTYYADSVKGRFTISRDNAKNTVYLQMNSLKPEDTAVYDCNKDYIYVGVPRYRSINHDYWGQGTQVTVSS | low polyreactivity
QVQLVESGGGLVQAGGSLRLSCAASGITFGIYAMGWYRQAPGKERELVAAIDGSDGSTYYADSVKGRFTISRDNAKNTVYLQMKSLKPEDTAVYYCNAENGYSWDVFSDYWGQGTQVTVSS | low polyreactivity
QVQLVESGGGLVQAGGSLRLSCAASGITFTVYTMGWYRQAPGKERELVAAITTSGTTTYYADSVKGRFTISRDNAKNTVYLQINSLKPEDTAVYYCAARQVWGEGVKSYYWGQGTQVTVSS | high polyreactivity
QVQLVESGGGLVQAGGSLRLSCAASGSTIYVYAMGWYRQAPGKERELVAAITDSGGSTYADSVKGRFTISRDNAKNTVYLQMNSLKPEDTAVYADSTYNWYYYYWGQGTQVTVSS | low polyreactivity
QVQLEESGGGLVQAGGNLRLSSAASGSIFSFNAMGCYRQAPGKERELVAAISWRGASTYYADSVKGRFTISRDNAKNTVYLQMNSLKPEDTAVYYCAAESTFILQYSYIYYDGHYDYCGQGTQVTVSS | low polyreactivity
QVQLVESGGGLVQAGGSLRLSCAASGRTLKKNSMGWYRQAPGKERELVAAISTGGRTYYADSVKGRFTISRDNAKNTVYLQINSLKPEDTAVYYCNFQFLSWSTIWGNDYWGQGTQVNVSS | high polyreactivity
QVQLVESGGGLVQAGGSLRLSCAASGFTIRWYTMGWYRQAPGKERELVAAISRGGSTNYADSVKGRFTISRDNAKNTVYLQMNSLKPEDTAVYYCATSAPLVTSSGYGYWGQGTQVTVSS | high polyreactivity
QVQLVESGGGLVQAGGSLRLSGDASGYIFVRYAMGWYRQAPGQARELVAAINSSGGRTYYADSVKGRFTISRDNAKNTVYLQMNSLKPEDTAVYYCAAYAYYRSGYRALEGYWGQGTQVTVSS | high polyreactivity
QVQLVESGGGLVQEGGSLRLSCAASGFIFLYYAMGWYRQAPGKERELVASINRVGSTYYADSVKGRFTISRDNAKKTVYLQMNSLKPEVTAVYYCNARWIGRLTPYRRATYNYWGQVTQVTVSS | high polyreactivity
QVQLVESGGGLVQAGGSLRLSCAASGSIFVNYAMGWYRQAPGKERELVAAITDGGRTYYADSVKGRFTISRDNAKNTVYLQMNSLKPEDTAVYYCAVDGIRYWGSRDESGYDYWGQGTQVTVSS | low polyreactivity
QVQLVESGGALVQAGGSLRLSCAASGYTFFYYAMGWYRQARGKERVLVAIDLNGGSTYYADSVKGRFTISRDNEKNTVYLQINSLKPEDTAVYYCNAKTSIGTWVGDDYWGQGTQVTVSS | low polyreactivity
QDQLVESGGGLVQAGGSLRITCAASGSIFSWYTMGRYRQAPGKEMELVAAISGCGSRTYYADSVKGRFTISRDIEKNTVYLQMNSLKPEDTALYYCNTVNTWSVYYAYDYWGQGTQVTVSS | high polyreactivity
QVQLVESAGVLVQAGGSLRFSCAPSGIIFPQYAMGWYRQAPGKARELVAAITYSGDGTYYADSVKGRFTISRDNAKYTVYLLMYSLKPDDTAVYYCAAFPRDPYKEYDYWGQGTQLTVSS | low polyreactivity

Sequence | polyreactivity (PSR sort gate)
QVQLVESGGGLVQAGGSLRLSCAASGRIFYGYAMGWYRQAPGKERELVAAISKSGTRTYYADSVKGRFTISRDNAKNTVYLQMNSLKPEDTAVFYCNARGYPYDTYNEYYYWGQGTQVTVSS | high polyreactivity
QVQLVESGGGLVQAGGSLRLSCAASGRTFEGYTMGWYRQAPGKERELVSAISWSGARTYYADSVKGRFTISRDNAKNTVYLQMNSLKPEDTAVYYCAADRYWISLWYIMGYWGQGTQVTVSS | high polyreactivity
QVQLVESGGGLVQAGGSLRLSCAASGLIFKSYAMGWSRQAPGKERELVAVISSSGGSTYYADSVKGRFTISRDNAKNTVYLQMNSLKPEDTAVYYCAARSTYRTGDYWGQGTQVTVSS | high polyreactivity
QVQLVESGGGLVQAGGSLRLSCAASGRTFTRNAMGWYRQAPGKERELVAAISAGGTRTYYADSVKGRFTISRDNAKNTVYLQMNSLIPEDTAVYYCAKPIAPAPNAYPAYDYWGQGTQVTVSS | high polyreactivity
QVQLVDSGGGLVQAGGSLRLSCAASGSTFNPYAMGWYRQAPGKERELVAGISWSGGSTYYADSVKGRFSISRDNAKNTVYLQMNSLKPEDTAVYYCAVVVYWSVIYDFWGQGTQVTVST | low polyreactivity
QVQLVESGVGLVQARGSLRISCAASGFIFDLYAMGWYIQAHGKERELVAAITTSGGTTYYADSVKGRFTISRDNAKNTVYLQMNSLKPEDTAVYYCNALRRYVSVRPTKSDYWGQGTQVTVSS | high polyreactivity
QVQLVESGGGLVQAGGSLRLSCAASGIIFSTNAMGWYRQAPGKERELVAAISWDGSSTYYADSVKGRFTISRDNAKNTVYLQMNSLKPEDTAVYYCAADQSTVLDVGSWGQGTQVTVSS | low polyreactivity
QVQLVESGGGLVQAGGSLRLSCAASGRIFNRNAMGWYRQAPGKERELVASISSGGRTNYADSVKGRFTISRDNAKNTVYLLMNSLKPEDTAVYYCAAKSPRILLDYWGQGTQVTVSS | low polyreactivity
QVQLVESGGGLVQAGGRLRLSFAASGSIFVFYVMGWYRQAHGKERELVAAISNSGSSTYYADSVKGRFTISRDNAKNTVYLQINSLKPEDTAVYYCAAEYKIPVGFDYWGQGTQVTVSS | low polyreactivity
QVQLVESGGCLVQAGGSLRLSCAASGSTIPLYAMGWYIQAPGKERELVAAITSGGGNTYYADSVKGRYTISRDNAKNTVYLQKTSLKPDDTAVYYCAAVVGYKSYYSYEYDYWGQGTQVNVSS | low polyreactivity
QVQLVESGGGLVQAGGSLRLSCAASGSIFLYYVMGWYRQAPGKERELVAAITWDGGSTYYADSVKGRFTISRDNAKNTVYLQMNSLKPEDTAVYYCNKDTTYSYYTEPYDYWGQGTQVTVSS | low polyreactivity
QVQLVESGGGIVQAGGSLRLICAASGSIFNGYALGWYRQAPGKERDLVAAISWRGGTTYYADSVKGRFSISRDTAKNTVYLQMNSLKPEDTAVYYCAARHFARMGYWGQGTQVTVSS | high polyreactivity
QVQLVESGGGLVQAGGSLRLSCAASGLTFSQNAMGWYRQAPGKERELVAAITRSGSTTHYADSVKGRFTISRDNAKNTVYLQMNSLKPEDTAVYYCAAVAFLTRYYYWGQGTQVTVSS | high polyreactivity
QVQLVESGGGLVQAGGSLRLSCAASGYIFGGNAMGSYRPAPGNPRELVAAISSSSGGTYYADSVKGRFTISRDNAKNTVYLQMNSLKPEDTAVYYCAAAPVDYEYDYWGQGTQVTVSS | low polyreactivity
QVQLQESGGGLVQAGGSLRLSSAASGSIIQYGYMGWYRQAPGKEREFVAGIGGGTSNYADSVKGRFTMSRDNAKNTVYLQMNSLKPEDTAVYYCNTDAGDYYGENYWGQGTQVTVSS | low polyreactivity
QFQLVETGGGLVQAGGSLRLSCAASGSILGFNAMRWYIQAPGKESELGAAIRWSGDSTYADSVKGLFTMSRDNAKNTVYLQMNSLTQEDPSFYYCNARDTSYANWLSHFYYWGQGTQVTVSW | low polyreactivity
QVQLVESGGGLVPAGGSLRLSCAASGSTFIAYTRGWYRKAPGKERELVAAISGTGGTTYADSVKGRFTISRDNAKNTVYLQMNSLKPEDTAVYYCAAQYRYTYWGQATQVTVSS | low polyreactivity
QVQLVESGGGLVQAGGSLRISCAASGRTFGPNAMGWYIKAPGKERELVAAIRYSGGSTYYADSVKGRFTISRDKAKNTVYLQMNSLKPEDTAVYYCAADYVSYVGERGTLYVRYDYWGQGTQVTVSS | high polyreactivity
QVQLVESGGGLVQAGGSLRLSCAASGSIFSRNVMGGSRQAPGKERELVAAITGSGGRTYYADSVKGRFTISRDNAKNTVYLQMNSLKPEDTAVYYCAKSRPGPYDYWGQGTQVTVSS | high polyreactivity
QVQLVESGGGLVQAGGILRLSCAASGSTLGYYAMGWYRQAPGKERELVAAISWSGGRTYYADSVKGRFTISRDNAKNTVYLQMNSLKQEDTAFYYCNALNRTHYTGSDFYSWGQGTQVTVSS | high polyreactivity

Source: the nanobody polyreactivity screen of Harvey et al. (2022)
